The series in a line: soluble on expression in E. coli; label from the status in PepcDB or PDB records.
In the case of “MSSDALPLLSIRGVGKTYAQPVLAEIDLQLFGGEVLALTGENGAGKSTLSKIVGGLERPGAGSLELLGRPYAPASRREAEALGVRMVMQELNLLPTLSVAENLFLHDLPRRAGWIDRRRLRAAAREAMAQVGLEAIDPDTLVGDLGIGHQQMVEIARNLIGDCRLLILDEPTAMLTAREVDMLFEQVERLRERGVAIVYISHRLEELARISQRIAVLRDGRLVCVEPIERYDADQLVTLMVGRDLGERFDLGPRQTGAPLLRVERLSRRGKVHEVSFEVRAGEIFGISGLIGSGRTELLRLIYGADRADGGQVLLGDPPQRLSLRSPADSVRQGVALITEDRKGEGLLLDQSISANLALGNLPALARHGVIDRRREEALARRQVEALRVRCADTAQAVGELSGGNQQKVVIGRWLERDCQVLLFDEPTRGIDVGAKFDIYALLAELTRRGKALVVVSSDLRELMLICDRIGVLSAGRMVDTFERDAWTQDALLAAAFAGYK”, the “soluble on expression in E. coli” value is recorded as “not soluble”.
As for “MGSDKIHHHHHHMAGGVSLKYILEQLAEERLGFLVNGHAMRQESQVGDLKVMERKKKLLEKRKVDIIKAKAKAVINHVRVEDDGTTCLSYTIHYEYVCKEQDDSLYIEEHIEERMAFLYDHILISDQEIAKKPAGFHEGTSIIDYSEAEEEREAFGRAFQYDRLGAVQYAEKFWNKRNPAYKNFSDNCTNFISQCLHAGGAPMRGHPNRGSGWWMKQSSWSYSWTVAHSMKMYLSNSKAGLRAVRVKSAEELMPGDVICYDFEGDGRFNHTTIVVAKDKGNMPLVNAQTYDSRMRYWSYEDSTAYTPSIRYAFFHIVDDTTKE”, the “soluble on expression in E. coli” value is “not soluble”.
The result for “MAFAIASALTSTLTLSTSRVQNPTQRRPHVASTSSTGGRLMRERLVVVRAGKEVSSVCEPLPPDRPLWFPGSSPPEWLDGSLPGDFGFDPLGLGSDPDTLKWFAQAELIHSRWAMLAVTGIIIPECLERLGFIENFSWYDAGSREYFADSTTLFVAQMVLMGWAEGRRWADLIKPGSVDIEPKYPHKVNPKPDVGYPGGLWFDFMMWGRGSPEPVMVLRTKEIKNGRLAMLAFLGFCFQATYTSQDPIENLMAHLADPGHCNVFSAFTSH” reads “soluble”.
On to “MAHHHHHHMLKLQLDATAIEDELKLSANSKSANTVSSKTPRPDKFAAYHTLRLLFVPIWKRYRFHKQMVWATAIVAKHVLLKVHWRRQRRSERATDTFLHVLRIPRTKLRCAAHLLEGQVVRIQRAFRRHRARVQAVVELNYRKVRRDVEEAYWEAVVTQHEAELAVQQRPFSPVPKAVREVFGARAEARARFGSIQRRTSLLSSAGNSSYDTAVPSNELDVYNFHMIGRLPGSLLRFEMTSAVFAQLRRSAARAHLMDDFSETRARRAGMGGFMEHGDIAPTNTAFVRSRGKCRAQLPCFLPESVYAAILNNTCYLTSLMRDDRKLRAHLRQREHHLESY”, for which the “soluble on expression in E. coli” value is recorded as “not soluble”.
The result for “MAHHHHHHMCVRTWQKCPGLVSVKHRCIGGTLTNDGLRTEQYSHAPGPVRYFFLCLYDALLAHQQRLDQYWLNPLYQLNVHSFPFVYLYIVHFNTKIIFSFSFKANKNFFPLRLTTGKNCRKTKSTCRQPPTPNIDDRSSL” reads “not soluble”.
In the case of “MLMIKVVCGKKGSGKTRALVDSANSFVSTALGDAVFIDGSSQLMCDLHHKVRFINVSEFPIDISSSCTFLGFLCGIISSNFDVKWVYMDDLIRIVRKPPHEMKELFDGFNELSEKFNVDFYVSIEGDPDSMPDFIKVCY”, the “soluble on expression in E. coli” value was “not soluble”.
The result for “MDCVMKGLNKITCCLLAALLMPCAGHAENEQYGANFNNADIRQFVEIVGQHLGKTILIDPSVQGTISVRSNDTFSQQEYYQFFLSILDLYGYSVITLDNGFLKVVRSANVKTSPGMIADSSRPGVGDELVTRIVPLENVPARDLAPLLRQMMDAGSVGNVVHYEPSNVLILTGRASTINKLIEVIKRVDVIGTEKQQIIHLEYASAEDLAEILNQLISESHGKSQMPALLSAKIVADKRTNSLIISGPEKARQRITSLLKSLDVEESEEGNTRVYYLKYAKATNLVEVLTGVSEKLKDEKGNARKPSSSGAMDNVAITADEQTNSLVITADQSVQEKLATVIARLDIRRAQVLVEAIIVEVQDGNGLNLGVQWANKNVGAQQFTNTGLPIFNAAQGVADYKKNGGITSANPAWDMFSAYNGMAAGFFNGDWGVLLTALASNNKNDILATPSIVTLDNKLASFNVGQDVPVLSGSQTTSGDNVFNTVERKTVGTKLKVTPQVNEGDAVLLEIEQEVSSVDSSSNSTLGPTFNTRTIQNAVLVKTGETVVLGGLLDDFSKEQVSKVPLLGDIPLVGQLFRYTSTERAKRNLMVFIRPTIIRDDDVYRSLSKEKYTRYRQEQQQRIDGKSKALVGSEDLPVLDENTFNSHAPAPSSRLEHHHHHH” reads “not soluble”.
For “MRDLKGIFSALLVSFNEDGTINEKGLRQIIRHNIDKMKVDGLYVGGSTGENFMLSTEEKKEIFRIAKDEAKDQIALIAQVGSVNLKEAVELGKYATELGYDCLSAVTPFYYKFSFPEIKHYYDTIIAETGSNMIVYSIPFLTGVNMGIEQFGELYKNPKVLGVKFTAGDFYLLERLKKAYPNHLIWAGFDEMMLPAASLGVDGAIGSTFNVNGVRARQIFELTKAGKLKEALEIQHVTNDLIEGILANGLYLTIKELLKLEGVDAGYCREPMTSKATAEQVAKAKDLKAKFLS”, the “soluble on expression in E. coli” value is recorded as “soluble”.
The result for “MAHHHHHHMLRRVIVGGVCRRASPSIAGRMVAARYAATIPTSTVASTTMSSSPTSRDDASTRAVVSEVPNLSFLASKTVLAETVEQTIEVCEALLNEIPKVKGAKEKHDLIDSTSNVLCLLLDPCEFVRQIHPDEEYKKHAAYAFQKGYEYMSKVNSRRDLYDVIVELDSPEGRKQLDDEEIKNVVQLKRDMESNGIHLSDALREKVTEMNIEKEDLAMRFLTEQGAKNPFATLRYLLRCRYELAKLLGFESYAEQQLRGTMLGNQQSVWHFLCGIAHKYRSAAEKELNLIRQNVGEVRNRQNITDDTRARVAHSLRRDAEPAKAEEYFSVANCIRGIQCLCSEVFGLRLEEVPFEREEVFNPDAKKFYVYDENRAFLGIIVLDMYASDMKYCQAGHLTLQLGCKPHQEALARVGLKLPERQYPVVVLTCNVGALTPAQRLPNGRFDDESTLMHPSEVTTVFHEFGHAMHTIFGQTKVQNLAGTRSSIDFVETFSQLFEHFLTSHEFLRLWAHRINTREPISFDIVMKRNAAADMFKHLDMLDQVVLSAVDQTLHGPQPYTVYFPHGQNGHLGKRTLGDSSDYGRGTYNLAKILIDVCTPLSIVTPTESGVLGTLSFEHLSGYPAGYYGYLYSLSVARRIWSKKFEKDPLNRAAGKELVQEVMRHGAACNPVEVIEKYLGDNLDEIDIWA” reads “not soluble”; that for “LWVYPARKPRGKAIIMCPGGGFNQIASDHEGRDFAAWFNNQGITYAVLNYRMPHGDVEVIREDIREAIRLIRRQSAEWGIHQLGVMGASIGGYIAATAATLYTGTDRPDFQVLLYPVISMTDRLTHWPSRERMLGETISEGLKETLSLELHVTADTPPTFIVLAEDDQAVSPLNSIVYYTALLKHGVSAGLHIYPEGGHSFGFRDSFIYKELWTDELQKWL”, “not soluble”.
Turning to “MKKITLLSGILFLIGYSDAEVFESQNVRVKRNDFTNNYGYGPFGIGPTNGGFDSYGFYRDKFYNSGLPPLYSFASYRNYYHEISFHKNKYGQPAPTDFETLQQERYGPYYDGVWGYADHSKNWFGKR”, the “soluble on expression in E. coli” value is “not soluble”.
The value for “MLLNEKDFKNEGVKIAALIMAESARTAPKSKGEDTIEIVYVDGEEMEKIAAKMEEMAEGGDKDFIRDAESVRKSQAILLIGAKGDRTVGVNCQACGFESCSEFKKADRKGENFVGPNCAFRMIDLGIALGSAVKVSAMLGIDTRIMYRIGIAAKKLGMIDADVVMGVPLSALGKSPYFDRAPKK” was “not soluble”; that for “MAHHHHHHMVSNVADVRQINLTDSSNFLLMACDGLWDVVENEEATQFVRDFLSYTPDVGSSPEATKRALNNCCQKLAEFAVDRGSTDNVSVMLLFFHDVADVVAGFDKPVGAVVSPPASQVLSPRLTGPSRGIPFGSSMLDGGLHTSSGTSGTRRPSFGSVSSLHGRGRSIW” was “not soluble”.
